In doi:10.1101/2024.07.21.604514 one finds EC50 of cAMP accumulation, WT GLP-1R, with 5 μM LSN3318839 and EC50 of cAMP accumulation, WT GLP-1R, with 50 nM LSN3318839 (full agonist) data, which are given here for one substance.

Experiment [1] concerns the target human GLP-1R-LgBiT-2MBP (glucagon-like peptide-1 receptor, construct for structure determination) (human) (UniProt P43220).
Experiment [2] shares this target. This is another data set of the same source.

Chain of UniProt P43220 (P43220 24-463): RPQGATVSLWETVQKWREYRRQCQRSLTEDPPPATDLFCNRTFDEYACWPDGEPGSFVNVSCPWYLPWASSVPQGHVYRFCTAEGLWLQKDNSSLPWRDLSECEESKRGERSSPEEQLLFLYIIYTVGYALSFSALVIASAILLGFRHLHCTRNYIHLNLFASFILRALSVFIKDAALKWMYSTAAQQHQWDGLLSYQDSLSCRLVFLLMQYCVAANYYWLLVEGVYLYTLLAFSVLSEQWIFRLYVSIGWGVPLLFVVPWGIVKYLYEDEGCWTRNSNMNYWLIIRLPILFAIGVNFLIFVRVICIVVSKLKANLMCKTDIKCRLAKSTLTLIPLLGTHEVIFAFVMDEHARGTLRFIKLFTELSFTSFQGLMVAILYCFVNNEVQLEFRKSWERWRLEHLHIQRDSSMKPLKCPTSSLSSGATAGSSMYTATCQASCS

In experiment [1], GLP-1(9-36)NH2 (peptide) registered an EC50 of cAMP accumulation, WT GLP-1R, with 5 μM LSN3318839 of 0.00041 µM. This substance also had an EC50 of cAMP accumulation, WT GLP-1R, with 50 nM LSN3318839 (full agonist) in experiment [2] of 0.023 µM.
